Tests used:
[1] = target: porcine GP2 isoform 2, incompletely deglycosylated under native conditions (pig); experiment: static adhesion assay (bacteria on coated protein); porcine GP2 incubated in native conditions with (NE) or without (N) deglycosylation enzymes, coated; S. Typhimurium 5744 wild type and its fimH deletion mutant added
[2] = target: porcine GP2 isoform 1, incompletely deglycosylated under native conditions (pig); experiment: as above

Substance: FimH of Salmonella Typhimurium wild type strain Tym5744 (from UniProt P37925 23-335) (natural protein)
- percent decrease of binding against GP2 that was not digested [1]: 53%
- percent decrease of binding against GP2 that was not digested [2]: 59%
